For test [1], the target named is T7-FoxM1B WT protein (CMV T7-FoxM1B; CMV WT FoxM1B 1-748) (human) (UniProt Q08050). The experiment in a line: cell-based or functional assay.
Test [2] has as its target Cdk1 protein (human) (UniProt P06493). The experiment in a line: cell-based or functional assay.

Cdk1 protein (human), sequence (P06493 whole entry): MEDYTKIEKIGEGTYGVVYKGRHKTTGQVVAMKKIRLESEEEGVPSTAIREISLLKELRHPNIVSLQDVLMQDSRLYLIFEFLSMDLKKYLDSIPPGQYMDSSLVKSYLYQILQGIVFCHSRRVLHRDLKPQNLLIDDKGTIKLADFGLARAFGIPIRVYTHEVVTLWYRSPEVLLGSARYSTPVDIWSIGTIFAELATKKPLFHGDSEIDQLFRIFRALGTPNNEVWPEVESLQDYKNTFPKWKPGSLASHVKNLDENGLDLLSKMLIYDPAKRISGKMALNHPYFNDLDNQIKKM

Substance “CBP protein (CREB Binding Protein, CMV-CBP) (enzyme)” displayed a FoxM1B transcriptional activity (6×FoxM1B TATA-luciferase reporter, U2OS cells) (% stimulation) in test [1] of 50. For the substance “T7-FoxM1B L641A mutant protein (from UniProt Q08050 1-763)”, the FoxM1B transcriptional activity (6×FoxM1B TATA-luciferase reporter, U2OS cells) in test [2] was determined as 80 % reduction.

(Values after patent US20130196933A1.)
